Experimental data from publication PMC12093452.

Target: Postsynaptic density lattice (PSDL) preparation (OG-11U-IS) (rat)
Experiment: negative-staining electron microscopy of grid-immobilised structures incubated with polymerizing tubulin; PSDL or PSD immobilised on the Formvar membrane of an EM grid, blocked with NGS and BSA at 0°C and 37°C, placed on a droplet of tubulin (ML116, 2 mg/mL, GTB, 1 mM GTP, 5% glycerol) polymerizing at 37°C; fixed with 1% glutaraldehyde, stained with nano-W

percent of MT ends associated with PSDL and/or PSDL-like structures: 30.9%
Substance: Tubulin MAP-rich, ML116, Cytoskeleton Inc. (from UniProt P02550 1-451) (complex)
